Experimental data from publication PMC3285539 (Nature, 2012).
Values belong to the binder of their own block, whether it stands above or below them.

B1: Rpt6 (natural protein)
chain: MTAAVTSSNIVLETHESGIKPYFEQKIQETELKIRSKTENVRRLEAQRNALNDKVRFIKDELRLLQEPGSYVGEVIKIVSDKKVLVKVQPEGKYIVDVAKDINVKDLKASQRVCLRSDSYMLHKVLENKADPLVSLMMVEKVPDSTYDMVGGLTKQIKEIKEVIELPVKHPELFESLGIAQPKGVILYGPPGTGKTLLARAVAHHTDCKFIRVSGAELVQKYIGEGSRMVRELFVMAREHAPSIIFMDEIDSIGSTRVEGSGGGDSEVQRTMLELLNQLDGFETSKNIKIIMATNRLDILDPALLRPGRIDRKIEFPPPSVAARAEILRIHSRKMNLTRGINLRKVAEKMNGCSGADVKGVCTEAGMYALRERRIHVTQEDFELAVGKVMNKNQETAISVAKLFK
B4: Rpn8 (recombinant lid) (natural protein)
chain: MSLQHEKVTIAPLVLLSALDHYERTQTKENKRCVGVILGDANSSTIRVTNSFALPFEEDEKNSDVWFLDHNYIENMNEMCKKINAKEKLIGWYHSGPKLRASDLKINELFKKYTQNNPLLLIVDVKQQGVGLPTDAYVAIEQVKDDGTSTEKTFLHLPCTIEAEEAEEIGVEHLLRDVRDQAAGGLSIRLTNQLKSLKGLQSKLKDVVEYLDKVINKELPINHTILGKLQDVFNLLPNLGTPDDDEIDVENHDRINISNNLQKALTVKTNDELMVIYISNLVRSIIAFDDLIENKIQNKKIQEQRVKDKQSKVSDDSESESGDKEATAPLIQRKNKKN

Legend:
Rpn2 = molecular target: T1, Rpn2 (S. cerevisiae, UniProt P32565 1-945); test: cryo-EM structure
T1 sequence: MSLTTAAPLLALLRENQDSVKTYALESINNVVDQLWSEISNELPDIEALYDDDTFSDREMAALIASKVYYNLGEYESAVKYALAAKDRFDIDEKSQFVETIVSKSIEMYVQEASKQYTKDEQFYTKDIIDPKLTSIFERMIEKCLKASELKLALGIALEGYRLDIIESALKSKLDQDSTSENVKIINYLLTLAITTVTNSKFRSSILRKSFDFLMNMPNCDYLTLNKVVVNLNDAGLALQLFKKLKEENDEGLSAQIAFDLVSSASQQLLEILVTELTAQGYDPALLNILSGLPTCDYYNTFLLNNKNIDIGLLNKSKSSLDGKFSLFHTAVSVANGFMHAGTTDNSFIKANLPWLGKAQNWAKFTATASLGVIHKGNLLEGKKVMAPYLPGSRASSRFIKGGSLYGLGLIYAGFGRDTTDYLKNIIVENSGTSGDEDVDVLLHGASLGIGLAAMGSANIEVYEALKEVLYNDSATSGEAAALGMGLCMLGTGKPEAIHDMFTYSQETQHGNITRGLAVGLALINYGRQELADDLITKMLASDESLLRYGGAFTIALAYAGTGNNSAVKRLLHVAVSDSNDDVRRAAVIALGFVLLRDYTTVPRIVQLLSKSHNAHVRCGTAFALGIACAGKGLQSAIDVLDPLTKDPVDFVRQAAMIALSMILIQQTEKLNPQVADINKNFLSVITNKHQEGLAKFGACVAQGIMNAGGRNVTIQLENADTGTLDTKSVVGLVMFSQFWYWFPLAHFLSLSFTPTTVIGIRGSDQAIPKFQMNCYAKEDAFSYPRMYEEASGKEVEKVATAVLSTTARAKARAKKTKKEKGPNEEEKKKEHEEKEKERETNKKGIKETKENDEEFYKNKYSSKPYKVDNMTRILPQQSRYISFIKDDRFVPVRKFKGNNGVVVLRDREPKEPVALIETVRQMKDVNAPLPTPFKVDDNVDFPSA

Rpn7 = molecular target: T2, Rpn7 (S. cerevisiae, UniProt Q06103 1-429); test: cryo-EM structure
T2 sequence: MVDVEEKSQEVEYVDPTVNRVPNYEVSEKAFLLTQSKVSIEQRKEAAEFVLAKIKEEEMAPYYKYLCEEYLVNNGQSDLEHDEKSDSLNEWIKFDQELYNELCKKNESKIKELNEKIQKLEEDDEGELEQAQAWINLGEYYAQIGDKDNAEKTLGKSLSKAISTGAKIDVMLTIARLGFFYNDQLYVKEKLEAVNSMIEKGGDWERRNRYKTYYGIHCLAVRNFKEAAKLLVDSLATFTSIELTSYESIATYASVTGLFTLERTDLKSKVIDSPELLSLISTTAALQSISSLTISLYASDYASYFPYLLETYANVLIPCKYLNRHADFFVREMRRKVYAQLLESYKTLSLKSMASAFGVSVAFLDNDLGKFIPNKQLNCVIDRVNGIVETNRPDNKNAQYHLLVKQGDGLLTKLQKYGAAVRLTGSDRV

Rpn5 (recombinant lid) = molecular target: T3, Rpn5 (recombinant lid) (S. cerevisiae, UniProt Q12250 1-445); test: negative-stain electron microscopy, 3D reconstruction
T3 sequence: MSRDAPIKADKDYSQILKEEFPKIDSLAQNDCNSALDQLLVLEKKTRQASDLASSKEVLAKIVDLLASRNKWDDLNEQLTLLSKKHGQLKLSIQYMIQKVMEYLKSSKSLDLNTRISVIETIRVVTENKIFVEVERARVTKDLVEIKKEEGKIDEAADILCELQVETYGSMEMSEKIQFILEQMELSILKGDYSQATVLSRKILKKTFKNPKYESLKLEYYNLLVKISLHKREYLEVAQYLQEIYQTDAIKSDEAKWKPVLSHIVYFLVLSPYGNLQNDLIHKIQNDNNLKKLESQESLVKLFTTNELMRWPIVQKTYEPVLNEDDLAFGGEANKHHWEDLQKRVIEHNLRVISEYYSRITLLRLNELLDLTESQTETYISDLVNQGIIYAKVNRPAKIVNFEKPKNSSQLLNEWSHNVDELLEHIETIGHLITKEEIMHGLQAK

Rpn8 (recombinant lid) = molecular target: B4; test: as above
Rpt3 = molecular target: T4, Rpt3 (S. cerevisiae, UniProt P33298 1-428); test: cryo-EM structure
T4 sequence: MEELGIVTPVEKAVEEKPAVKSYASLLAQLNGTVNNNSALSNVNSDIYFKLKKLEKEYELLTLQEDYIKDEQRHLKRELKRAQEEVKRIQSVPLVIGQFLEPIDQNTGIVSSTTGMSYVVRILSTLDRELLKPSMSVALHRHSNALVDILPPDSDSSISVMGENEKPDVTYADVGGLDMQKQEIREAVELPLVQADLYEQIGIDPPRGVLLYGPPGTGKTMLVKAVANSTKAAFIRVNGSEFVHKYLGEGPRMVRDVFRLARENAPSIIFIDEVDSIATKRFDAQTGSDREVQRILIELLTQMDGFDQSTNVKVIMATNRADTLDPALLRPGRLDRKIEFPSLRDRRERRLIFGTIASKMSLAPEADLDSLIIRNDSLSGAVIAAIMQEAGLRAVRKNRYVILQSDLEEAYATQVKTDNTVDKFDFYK

Rpt6 = molecular target: B1; test: cryo-EM structure
Rpn9 (recombinant lid) = molecular target: T5, Rpn9 (recombinant lid) (S. cerevisiae, UniProt Q04062 1-393); test: negative-stain electron microscopy, 3D reconstruction
T5 sequence: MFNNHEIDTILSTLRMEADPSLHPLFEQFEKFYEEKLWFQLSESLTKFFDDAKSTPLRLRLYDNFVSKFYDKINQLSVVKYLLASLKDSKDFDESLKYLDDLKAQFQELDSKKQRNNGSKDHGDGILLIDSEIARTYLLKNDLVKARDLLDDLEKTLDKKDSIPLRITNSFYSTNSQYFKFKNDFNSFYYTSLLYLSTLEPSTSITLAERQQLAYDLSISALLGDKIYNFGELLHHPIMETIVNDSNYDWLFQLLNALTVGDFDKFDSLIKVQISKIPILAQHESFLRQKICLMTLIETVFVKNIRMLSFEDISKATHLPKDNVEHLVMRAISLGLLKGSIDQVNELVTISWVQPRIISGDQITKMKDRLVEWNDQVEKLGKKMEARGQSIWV

Rpt5 = molecular target: T6, Rpt5 (S. cerevisiae, UniProt P33297 1-434); test: cryo-EM structure
T6 sequence: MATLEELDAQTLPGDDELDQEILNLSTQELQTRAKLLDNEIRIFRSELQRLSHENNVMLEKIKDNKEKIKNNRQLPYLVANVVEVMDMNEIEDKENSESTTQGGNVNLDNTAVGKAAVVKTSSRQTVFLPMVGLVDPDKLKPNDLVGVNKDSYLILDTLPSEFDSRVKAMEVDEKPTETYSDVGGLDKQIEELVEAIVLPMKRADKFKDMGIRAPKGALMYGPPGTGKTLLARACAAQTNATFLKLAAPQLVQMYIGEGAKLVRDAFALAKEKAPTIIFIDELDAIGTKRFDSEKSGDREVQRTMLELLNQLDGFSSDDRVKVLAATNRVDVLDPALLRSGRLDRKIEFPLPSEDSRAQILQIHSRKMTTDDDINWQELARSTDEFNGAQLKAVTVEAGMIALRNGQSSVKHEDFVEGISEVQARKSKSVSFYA

Binder: B1
binding result (Rpn2): binds
binding result (Rpn7): binds

B3: Rpn8 (natural protein)
chain: MSLQHEKVTIAPLVLLSALDHYERTQTKENKRCVGVILGDANSSTIRVTNSFALPFEEDEKNSDVWFLDHNYIENMNEMCKKINAKEKLIGWYHSGPKLRASDLKINELFKKYTQNNPLLLIVDVKQQGVGLPTDAYVAIEQVKDDGTSTEKTFLHLPCTIEAEEAEEIGVEHLLRDVRDQAAGGLSIRLTNQLKSLKGLQSKLKDVVEYLDKVINKELPINHTILGKLQDVFNLLPNLGTPDDDEIDVENHDRINISNNLQKALTVKTNDELMVIYISNLVRSIIAFDDLIENKIQNKKIQEQRVKDKQSKVSDDSESESGDKEATAPLIQRKNKKN
binding result (Rpt3): binds
binding result (Rpt6): binds

Binder: B4
binding result (Rpn9 (recombinant lid)): binds

The next lines start with the values.

binding result (Rpn5 (recombinant lid)): binds
binding result (Rpn8 (recombinant lid)): binds
B2: Rpn11-6xHis (recombinant lid) (enzyme)
chain: MERLQRLMMNSKVGSADTGRDDTKETVYISSIALLKMLKHGRAGVPMEVMGLMLGEFVDDYTVNVVDVFAMPQSGTGVSVEAVDDVFQAKMMDMLKQTGRDQMVVGWYHSHPGFGCWLSSVDVNTQKSFEQLNSRAVAVVVDPIQSVKGKVVIDAFRLIDTGALINNLEPRQTTSNTGLLNKANIQALIHGLNRHYYSLNIDYHKTAKETKMLMNLHKEQWQSGLKMYDYEEKEESNLAATKSMVKIAEQYSKRIEEEKELTEEELKTRYVGRQDPKKHLSETADETLENNIVSVLTAGVNSVAIK

binding result (Rpt5): binds
B5: 20S core subunit α6 (natural protein)
chain: MFRNNYDGDTVTFSPTGRLFQVEYALEAIKQGSVTVGLRSNTHAVLVALKRNADELSSYQKKIIKCDEHMGLSLAGLAPDARVLSNYLRQQCNYSSLVFNRKLAVERAGHLLCDKAQKNTQSYGGRPYGVGLLIIGYDKSGAHLLEFQPSGNVTELYGTAIGARSQGAKTYLERTLDTFIKIDGNPDELIKAGVEAISQSLRDESLTVDNLSIAIVGKDTPFTIYDGEAVAKYI
